# Biological target: Lathyrus sativus β-L-ODAP synthase (LsBOS), N-terminal His-tag (Lathyrus sativus)
# Test: SPR; Biacore 8K, CM5 chip; LsBOS amine-coupled (~1700 response), LsAAE3 as analyte; single cycle kinetics at 2.4, 12, 60, 300 and 1500 nM; 10 mM Hepes pH 7.4, 150 mM NaCl, 0.05 % tween 20, 25 °C; simple Langmuir binding model
substance,measurement,value
"Lathyrus sativus acyl-activating enzyme 3 (LsAAE3), N-terminal His-tag",Kd,98 nM
same,koff,0.000361 s⁻¹
same,kon,3670 M⁻¹ s⁻¹
same,stoichiometry N,1
